Reference: patent publication US20230329283A1 (priority 2021, published 2023)
Like-named read-outs stand apart in the source and are kept apart here.

Test system: rabbit red blood cells
Details: 37° C., 1 h, FIG. 6

## TrSub (EFGAGKAQCAAAWLQCASGGTLGCGGGAVACQNYRQFQCRAA; the amino acid sequence of the recombinant antimicrobial peptide TrSub)
2MIC concentration
  hemolytic activity (hemolysis rate): below 10%
MIC concentration
  hemolytic activity (hemolysis rate): below 10%
